Source: patent publication US20140271602, “NUCLEOTIDE-SPECIFIC RECOGNITION SEQUENCES FOR DESIGNER TAL EFFECTORS” (THE BROAD INSTITUTE INC., published 2014)
Changes are numbered by the printed parent chain.

Assays:
[1] = test system: AAVS1 left TALEN (Xanthomonas (engineered)); test: cell_activity; conditions: Surveyor assay, with right TALEN, 293FT
[2] = test system: AAVS1 right TALEN (Xanthomonas (engineered)); test: cell_activity; conditions: Surveyor assay, with left TALEN, 293FT
[3] = test system: SOX2 TALE-TF (Xanthomonas (engineered)); test: cell_activity; conditions: endogenous SOX2
[4] = test system: NH-TALE (RVD screening) (Xanthomonas (engineered)); test: cell_activity; conditions: luciferase reporter
[5] = test system: NN-TALE (RVD screening) (Xanthomonas (engineered)); test: cell_activity; conditions: luciferase reporter
[6] = target: T1, TALE2-NN (CACNA1C site 2 activator) (Xanthomonas (engineered), UniProt P14727 SEQ:1-983); test: cell_activity; HEK 293FT, endogenous CACNA1C mRNA; conditions: tags: VP64, 2A-GFP
T1 chain: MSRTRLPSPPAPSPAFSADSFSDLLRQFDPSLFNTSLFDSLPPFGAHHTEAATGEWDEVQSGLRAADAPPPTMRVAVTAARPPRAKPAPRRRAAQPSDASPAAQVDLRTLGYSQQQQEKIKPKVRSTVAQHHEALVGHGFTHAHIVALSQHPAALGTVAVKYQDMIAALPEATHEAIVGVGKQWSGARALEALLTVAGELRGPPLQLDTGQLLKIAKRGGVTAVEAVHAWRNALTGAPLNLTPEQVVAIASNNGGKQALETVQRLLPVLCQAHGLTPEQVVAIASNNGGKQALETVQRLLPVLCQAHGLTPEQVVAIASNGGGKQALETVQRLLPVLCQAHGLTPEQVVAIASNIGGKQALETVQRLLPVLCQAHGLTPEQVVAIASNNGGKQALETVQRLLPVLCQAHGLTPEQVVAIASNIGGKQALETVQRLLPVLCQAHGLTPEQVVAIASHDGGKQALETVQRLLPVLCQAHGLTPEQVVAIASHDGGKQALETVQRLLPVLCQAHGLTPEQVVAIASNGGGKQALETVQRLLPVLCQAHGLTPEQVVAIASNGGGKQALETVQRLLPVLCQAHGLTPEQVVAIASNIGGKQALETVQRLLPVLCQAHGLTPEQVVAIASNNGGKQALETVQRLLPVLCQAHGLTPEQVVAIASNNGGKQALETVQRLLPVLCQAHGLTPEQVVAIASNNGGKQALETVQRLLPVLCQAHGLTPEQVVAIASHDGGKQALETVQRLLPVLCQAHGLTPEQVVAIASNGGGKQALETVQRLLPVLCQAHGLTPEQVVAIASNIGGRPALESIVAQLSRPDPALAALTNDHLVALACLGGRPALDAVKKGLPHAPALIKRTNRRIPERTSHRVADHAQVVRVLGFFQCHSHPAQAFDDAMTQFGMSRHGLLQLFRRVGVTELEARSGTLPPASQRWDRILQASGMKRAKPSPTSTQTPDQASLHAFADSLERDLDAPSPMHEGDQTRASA
Experimental: Changes in mRNA are measured using qRT-PCR as described previously. VP64, VP64 transcription activation domain. All results are collected from three independent experiments in HEK 293FT cells. Error bars indicate s.e.m.; n=3. FIG. 19(b) discloses SEQ ID NOS 63 and 62, respectively, in order of appearance.
Using qRT-PCR, the performance of NN, NK, NH, and HN for targeting endogenous genomic sequences was further compared. The ability of NN-, NK-, NH-, and HN-TALEs to activate CACNA1C transcription by targeting the two endogenous target sites was tested (FIG. 19b). […] Both TALE 1-NH and TALE2-NH were able to achieve similar levels of transcriptional activation as TALE1-NN and TALE2-NN (˜5 and ˜3 folds of activation for targets 1 and 2, respectively) and twice more than TALE-NK and TALE2-NK (FIG. 19b). […] On the other hand, based on all the results from specificity and endogenous activity tests, the RVD NH seems to be a more suitable substitute for NN than NK when higher targeting specificity is desired, as it also provides higher levels of biological activity. Further testing using additional endogenous genomic targets helps validate the broad utility of NH as a highly specific G-targeting RVD.
For the endogenous gene transcriptional level assay to test the biological activities of TALE activators and TALE repressors, HEK 293FT cells were seeded into 24-well plates. […]

[7] = target: T2, TALE2-NH (CACNA1C site 2 activator) (Xanthomonas (engineered), UniProt P14727 SEQ:1-983); test: cell_activity; HEK 293FT, endogenous mRNA; reporter 2.7x that of NK; conditions: tags: VP64, 2A-GFP
T2 chain: T1 chain with N253H, N287H, N389H, N627H, N661H, N695H

**Q.** For “TGTCCCCTCCACCCCACA (double strand) [AAVS1 left TALEN site]”, which activity (% cleavage (pair)) [1] is on record?
**A.** Its activity (% cleavage (pair)) is under 3.6.

**Q.** For “GTCCTAACCACTGTCTTT (double strand) [AAVS1 right TALEN site]”, which activity (% cleavage (pair)) [2] is on record?
**A.** The activity (% cleavage (pair)) was under 3.6.

**Q.** SOX2 TALE-TF site was tested. Which activity (fold activation) [3] did it give?
**A.** The activity (fold activation) was under 5.

**Q.** What does the source list for “TTCTTGGTTATAAC (double strand) [RVD screen G-reporter]”?
**A.** binding signal (G- to A-reporter activation ratio) [4]: 16.4; binding signal (G- to A-reporter activation ratio) [5]: 3.5

B1: CACNA1C site 2 (dsDNA)
DNA 1: TGGTAGACCTTAGGGCTA
DNA 2: TAGCCCTAAGGTCTACCA
**Q.** B1 was tested. Which activity [6] did it give?
**A.** Its activity is about 3 fold activation.

**Q.** What about the activity [7] of the same molecule?
**A.** The activity was about 3 fold activation.
